Measured values from paper PMC7041687 (The Journal of Cell Biology, 2019).
Ends that are not written are not given here.

T1: Ana2 full length, wild type, nonphosphorylated (purified) (Drosophila, UniProt Q9XZ31 1-420)
T1 sequence (looked up): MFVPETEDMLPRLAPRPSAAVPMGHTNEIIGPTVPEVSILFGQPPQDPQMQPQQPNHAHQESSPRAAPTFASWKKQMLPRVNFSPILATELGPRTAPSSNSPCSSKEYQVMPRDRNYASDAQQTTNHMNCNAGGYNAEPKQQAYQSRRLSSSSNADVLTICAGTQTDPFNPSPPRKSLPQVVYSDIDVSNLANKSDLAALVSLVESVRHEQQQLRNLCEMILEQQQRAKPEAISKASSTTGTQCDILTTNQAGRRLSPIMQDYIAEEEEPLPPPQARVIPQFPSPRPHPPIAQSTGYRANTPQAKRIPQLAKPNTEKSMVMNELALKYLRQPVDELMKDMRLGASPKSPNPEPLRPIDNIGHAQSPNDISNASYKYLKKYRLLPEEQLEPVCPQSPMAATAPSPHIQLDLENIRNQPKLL

T2: Ana2 S38A full length, nonphosphorylated (purified) (Drosophila, UniProt Q9XZ31 1-420, S38A)
T2 sequence (looked up): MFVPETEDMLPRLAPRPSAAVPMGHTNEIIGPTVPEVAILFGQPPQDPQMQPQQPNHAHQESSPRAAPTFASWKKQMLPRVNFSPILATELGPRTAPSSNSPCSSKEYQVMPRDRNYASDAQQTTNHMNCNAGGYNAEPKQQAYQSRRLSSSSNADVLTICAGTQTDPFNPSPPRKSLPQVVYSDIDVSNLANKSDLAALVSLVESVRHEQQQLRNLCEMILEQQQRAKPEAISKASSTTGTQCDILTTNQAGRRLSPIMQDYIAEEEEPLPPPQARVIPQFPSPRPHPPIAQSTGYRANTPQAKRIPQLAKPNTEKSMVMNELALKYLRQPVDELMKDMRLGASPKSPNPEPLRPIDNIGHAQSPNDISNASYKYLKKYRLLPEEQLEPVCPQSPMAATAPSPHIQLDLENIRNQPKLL

B1: His6-Thrombin-Sas4-606 (Sas4 amino acids 606–901) (domain or fragment, Drosophila, UniProt Q9VI72 606-901, looked up)
chain: RNIARLAPKVLPSATMSDILDENGRRTQSLDGTAGKPAKQREAQNRRQSSGSAQVRSRSRSLSRNKKTPYALDESYASSSSVESEEVQPPVTAPKAATPPPAANSSSDFKREITNADGSKDIWYPNGNLKKISADGMNLRMLYFNKDIKETNIREGTVKYYYAETNTWHTSYLDGLEILEFPNGQTEHRRKDGTVEIHFPNNSIKIVDPSDTEKLEEWRYADGTHLVQLRNGDKILNLPNGQKEIHTKLNKRREYPDGTVKLVYPDGSQETRYSNGRVRLKDKDGKLIMDTDYAKY

Experiments:
Experiment in all cases: BLI
[1] = molecular target: B1
[2] = molecular target: T1, Ana2 full length, wild type, …
[3] = molecular target: T2, Ana2 S38A full length, …

| Kd [1] [nM] | Kd [2] [nM] | Kd [3] [nM] | Binder |
| --- | --- | --- | --- |
| 134 | – | – | Ana2 1–60 (amino acids 1–60), nonphosphorylated (domain or fragment, Drosophila, UniProt Q9XZ31 1-60, looked up) MFVPETEDMLPRLAPRPSAAVPMGHTNEIIGPTVPEVSILFGQPPQDPQMQPQQPNHAHQ |
| 72 | – | – | Ana2 1–60 prephosphorylated with purified Plk4 (domain or fragment, Drosophila, UniProt Q9XZ31 1-60, looked up, also: prephosphorylated by Plk4, sites not listed) MFVPETEDMLPRLAPRPSAAVPMGHTNEIIGPTVPEVSILFGQPPQDPQMQPQQPNHAHQ |
| – | 26 | 31 | B1 |
